For the assay, the target named is T1, GST-tagged Sac1 (residues 2-460) (Saccharomyces cerevisiae, UniProt P32368 2-460).
T1 sequence (looked up): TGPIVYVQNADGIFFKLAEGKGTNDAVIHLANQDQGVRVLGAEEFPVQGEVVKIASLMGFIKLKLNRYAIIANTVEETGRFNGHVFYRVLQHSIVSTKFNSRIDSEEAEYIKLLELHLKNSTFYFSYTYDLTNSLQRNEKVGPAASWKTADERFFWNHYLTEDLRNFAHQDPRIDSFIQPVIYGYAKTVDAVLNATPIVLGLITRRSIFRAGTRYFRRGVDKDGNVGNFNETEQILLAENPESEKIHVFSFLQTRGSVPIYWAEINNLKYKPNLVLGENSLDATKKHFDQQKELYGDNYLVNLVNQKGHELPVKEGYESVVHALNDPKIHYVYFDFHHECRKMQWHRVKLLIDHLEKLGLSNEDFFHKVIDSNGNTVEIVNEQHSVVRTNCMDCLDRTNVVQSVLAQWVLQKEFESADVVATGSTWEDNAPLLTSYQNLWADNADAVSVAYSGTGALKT
Put plainly: pull-down.

B1: Vps74 (residues 46-345) (domain or fragment, Saccharomyces cerevisiae, UniProt Q06385 46-345, looked up)
chain: NKKIAYDPEESKLRDNINIPTLTLMEEVLLMGLRDREGYLSFWNDSISYALRGCIIIELALRGKIRILDDSARKRFDLSERLIEVIDSSKTGEVLLDETLQLMKNDEPLSISNWIDLLSGETWNLLKINYQLKQVRERLAKGLVDKGVLRTEMKNFFLFDMATHPIADASCKEAIKRRVLSVLVSRNMELSYNEYFPETTSFKIIRTLALICGSYGANVLENVLTTLEYEKRDKAISRAEEIMAQFSQYPFDLEKETELGVSVNLNKEVKEEIENNPGHDLQLEVIAGVFEVFSRMDMLL
As for B1, the binding result was “binds”.

B2: Vps74 (Y260S, N263S, E266S, Y274S, and D278S) (domain or fragment, Saccharomyces cerevisiae, UniProt Q06385 46-345, looked up)
chain: NKKIAYDPEESKLRDNINIPTLTLMEEVLLMGLRDREGYLSFWNDSISYALRGCIIIELALRGKIRILDDSARKRFDLSERLIEVIDSSKTGEVLLDETLQLMKNDEPLSISNWIDLLSGETWNLLKINYQLKQVRERLAKGLVDKGVLRTEMKNFFLFDMATHPIADASCKEAIKRRVLSVLVSRNMELSYNEYFPETTSFKIIRTLALICGSSGASVLSNVLTTLESEKRSKAISRAEEIMAQFSQYPFDLEKETELGVSVNLNKEVKEEIENNPGHDLQLEVIAGVFEVFSRMDMLL
With B2, the binding result was “binds”.

Values taken from paper PMC4137058 (The Journal of Cell Biology, 2014).
